Test results as given in article PMC3763810.

Target: ghrelin O-acyltransferase (GOAT) with a C-terminal 3xFlag tag (mouse) (UniProt P0C7A3)
Chain of UniProt P0C7A3 (P0C7A3 whole entry): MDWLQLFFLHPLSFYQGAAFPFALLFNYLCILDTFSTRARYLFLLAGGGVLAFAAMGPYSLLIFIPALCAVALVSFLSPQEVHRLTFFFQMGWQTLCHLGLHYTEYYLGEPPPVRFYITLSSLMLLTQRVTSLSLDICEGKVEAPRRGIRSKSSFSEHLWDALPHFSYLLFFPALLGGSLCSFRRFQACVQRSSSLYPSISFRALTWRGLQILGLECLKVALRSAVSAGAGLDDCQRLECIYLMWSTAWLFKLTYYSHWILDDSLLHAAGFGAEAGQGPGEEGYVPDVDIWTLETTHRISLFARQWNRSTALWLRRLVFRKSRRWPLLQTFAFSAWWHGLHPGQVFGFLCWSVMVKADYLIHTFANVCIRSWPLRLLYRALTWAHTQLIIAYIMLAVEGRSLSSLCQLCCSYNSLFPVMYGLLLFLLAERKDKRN

Row | Substance | inhibition of ghrelin acylation in cells, compounds used at 6 μM
1 | GO-CoA-Tat (peptide) | 75%

Target: growth hormone secretagogue receptor (GHS-R1a) (UniProt Q92847)
Chain of UniProt Q92847 (Q92847 whole entry): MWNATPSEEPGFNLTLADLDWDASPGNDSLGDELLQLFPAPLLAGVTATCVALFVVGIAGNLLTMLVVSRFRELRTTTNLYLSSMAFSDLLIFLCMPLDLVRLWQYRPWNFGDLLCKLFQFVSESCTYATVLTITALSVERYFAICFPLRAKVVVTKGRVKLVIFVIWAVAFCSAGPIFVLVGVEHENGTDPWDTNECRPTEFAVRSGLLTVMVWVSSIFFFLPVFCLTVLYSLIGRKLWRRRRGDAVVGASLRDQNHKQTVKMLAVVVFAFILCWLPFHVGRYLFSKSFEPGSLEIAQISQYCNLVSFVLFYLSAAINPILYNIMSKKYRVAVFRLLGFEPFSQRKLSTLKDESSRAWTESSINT

Row | EC50 in the GHS-R1a assay (stably transfected HEK-293T-GHS-R1a cells) | Substance
2 | 0.27 µM | Ghrelin28-Oct-CoA (peptide)
3 | 0.019 µM | Amide ghrelin (Ser3 Dap-Octanoyl-Amide) (peptide)
4 | 0.018 µM | Acyl ghrelin (peptide)
5 | > 10 µM | Des-acyl ghrelin (peptide)

Row | Substance | EC50 in the GHS-R1a assay (stably transfected HEK-293T-GHS-R1a cells)
6 | GO-CoA-Tat (peptide) | > 10 µM
7 | GO-Tat (peptide) | 0.023 µM
